Test results reported in the RNAGym collection of RNA variant scans (doi:10.1073/pnas.2313332121).

B1: TPR t1 (parent)
chain: GACCAAUCUGCCCUCAGAGCUCGAGAACAUCUUCGGAUGCAGAGGAGGCAGGCUUCGGUGGCGCGAUAGCGCCAACGUCCUCAACCUCCAAUGCAUCCCACCACAUGAUGAUGCCUGAAGAGCCUUGGUUUUUUG

Variants of: B1
Assay: polymerase ribozyme fitness, log enrichment relative to wild type (log ratio); higher = more active; in vitro selection for triplet polymerase activity
Method in brief: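 In triplicate, a single round of in vitro selection was run on each mutant library, PCR-built and transcribed, covering one subunit of a heterodimeric triplet polymerase ribozyme. Frozen incubation at −7 °C followed annealing with a biotinylated primer, partner subunit and triplets, and extended constructs were then gel-excised, streptavidin-captured and taken through RT-PCR. Fitness is the logarithm of genotype enrichment over wild-type enrichment, from inverse-variance-weighted replicate averages of Illumina-sequenced inputs and outputs. […] only genotypes with ≥10 input reads and ≥1 read per output were kept.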

Going from GACCAAUCUGCCCUCAGAGCUCGAGAACAUCUUCGGAUGCUGAGGAGGCAGGCUUCGGUGGCGCGAUAGCGCCAACGUCCUCAACCUCCAAUGCAUCCCACCAUAUGAUGAUGCCUGAAGAGCCUUGGUUUUUUG [A41U C104U] to GACCAAUCUGCCCUCAGAGCUCGAGAACAUCUUCGGAUGCGGAGGAGGCAGGCUUCGGUGUCGCGAUAGCGCCAACGUCCUCAACCUCCAAUGCAACCCACCACUUGAUGAUGCCUGAAGAGCCUUGGUUUUCUG [A41G G61U U96A A105U U133C], the “polymerase ribozyme fitness (log ratio)” value falls from -0.832 to -6.14.

Compared with GACCAAUCUGCCCUCAGAGCUCGAGAACAUCUUCGGAUGCUGAGGAGGUAGGCUUCGGUGGCGCGAUAGCGCCAACGUCCUCAACCUACAAUGCAUCCCACCACAUGAUGAUGCCUGAAGUGCCUUGGUUUUUUG [A41U C49U C88A A121U], GACCAAUCUGCCCUCAGAGCUCGAGAACAUCUUCGGAUGCUGAGGAGGCAGGCUUCGGUGGCGCGAUAGCGCCAACGUCCUCAACCUCCAAUGCAUCCCAGCACAUGAUGAUGCCUGAAGAGCCUUGGUUUUUUG [A41U C101G] is lower in “polymerase ribozyme fitness (log ratio)” value: -0.675 for the first, -3.73 for the second.

First: GACCAAUCUGCCCUCAGAGCUCGAGAACAUCUUCGGAUGCGGAGGAGGCAGGCCUCGGUGCCGCGAUAGCGCCAACGUCCUCAACCUCCAAUGCAUCCCACCAAAUGAUGAUGCCUGAAGAGCCUUGGUUUUUUG [A41G U54C G61C C104A]
Second: GACCAAUCUGCCCUCAGAGCUCGAGAACAUCUUCGGAUGCGGAGGAGGCAGGCUUCGGUGUCGCGAUAGCGCCAACGUCCUCAACCUCCAAUGCAUCCCACCACAUGAUGAUGCCUGAACAGCCUUGGUUUUUUG [A41G G61U G120C]
The “polymerase ribozyme fitness (log ratio)” value of the first is lower: -6.52 for the first, 0.573 for the second.

Compared with GACCAAUCUGCCCUCAGAGCUCGAGAACAUCUUCGGAUGCUGAGGAGGCAGGCUUCGGUGGCGCGAUAGCGGCAACGACCUCUACCUCCAAUGCAUCCCACCACAUGAUGAUGCCUGAAGAGCCUUGGUUUUUUG [A41U C72G U78A A83U], GACCAAUCUGCCCUCAGAGCUCGAGAACAUCUUCGGAUGCUGAGGAGGCAGGCUUCGGUGGCGCGAUAGCGCCAACGUCUUCAACCUCCAAUGCAUCCCACCACAUGAUGAUGCCUGAAGAGACUUGGUUUUUUG [A41U C80U C123A] is higher in “polymerase ribozyme fitness (log ratio)” value: -2.44 for the first, -1.59 for the second.

First: GACCAAUCUGCCCUCAGAGCUCGAGAACAUCUUCGGAUGCUGGGGAGGCAGGCUUCGGUGGCGCGAUAGCGCCAACGUCCUCAACCUCCAAUGUAUCCCACCACAUGAUGAUGCCUGAAGAGCCUUGGUUUUUUG [A41U A43G C94U]
Second: GACCAAUCUGCCCUCAGAGCUCGAGAACAUCUUCGGAUGCUGAGGAGGCAGGCUUAGGUGGCGCGAUAGCGCCAACGUCCUCAACCCCCAAUGCAUCCCACCACAUGAUGAUGCCUGAAGAGCCUUGGUUUUUUG [A41U C56A U87C]
The “polymerase ribozyme fitness (log ratio)” value of the first is lower: -3.17 for the first, -1.49 for the second.

First: GACCAAUCUGCCCUCAGAGCUCGAGAACAUCUUCGGAUGCUGAGGAGGCAGGUUUCGGUGGCGCGAUAGCGACAACGUCCUCAACAUCCAAUGCAUCCCACCACAUGAUGAUGUCUGAAGAGCCUUGGGUUUUUG [A41U C53U C72A C86A C114U U129G]
Second: GACCAAUCUGCCCUCAGAGCUCGAGAACAUCUUCGGAUGCUGAGGACGCAGGCUUCGGUGGCGCGAUAGCGCCAUCGUCCUCAACCUCCAAUGCAUCCCACCACAUGAUGAUGCCUGAAGAGCCUUGGUUUUUUG [A41U G47C A75U]
The “polymerase ribozyme fitness (log ratio)” value of the first is lower: -5.65 for the first, -3.07 for the second.

Going from GACCAAUCUGCCCUCAGAGCUCGAGAACAUCUUCGGAUGCUGAGGAGGCAGGCUUCGGUGGCGCGAUAGCGCCAACGUCUUCAACCUCCAAUGCAUCCCACCACAUGAUGAUGCCUGAAGAGCCUUGGUUUUUUG [A41U C80U] to GACCAAUCUGCCCUCAGAGCUCGAGAACAUCUUCGGAUGCUGAGUAGGCAGGCUUCGGUGGCGCGAUAGCGCCAACGCCCUCAACCUCCAAUGCAUCCCACCACAUGAUGAUGCCUGAAGAGCCUUGGUUUUUUG [A41U G45U U78C], the “polymerase ribozyme fitness (log ratio)” value falls from -1.77 to -2.76.

First: GACCAAUCUGCCCUCAGAGCUCGAGAACAUCUUCGGAUGCUGAGGAGGCAGGCUUCGGUGGCGCGAUAGAGCCAACGUCCUCAACCUCGAAUGCAUACCACCACCUGAUUAUGCCUGAAGAGCCUUGGUUUUUUG [A41U C70A C89G C97A A105C G110U]
Second: GACCAAUCUGCCCUCAGAGCUCGAGAACAUCUUCGGAUGCUGAGGAGGCAGGCUUCGGUGGCGCGAUAGCGCCAAAGUCCUCAACCUCCAAUGCAUCCCACCACAUGAUGAUGCCUGAAGAGCCUUGGUUUUUUG [A41U C76A]
The “polymerase ribozyme fitness (log ratio)” value of the first is lower: -5.8 for the first, -1.89 for the second.

Going from GACCAAUCUGCCCUCAGAGCUCGAGAACAUCUUCGGAUGCGGAGGAGGCAGGCUUCGGUGGCGCGAUAUCGCCAACGUCCUCAACCUCCAAUCCAUCCCACCACAUGAUGAUGCCUGAAGAGCCUUGGUUUUUUG [A41G G69U G93C] to GACCAAUCUGCCCUCAGAGCUCGAGAACAUCUUCGGAUGCUGAGCAGGCAGGCUUCGGUGGCGCGAUAGCGCCAACGUCCUCAACCUCCAAUGCAUCCCACCACAUGAUGAUGCCUGAAGAGCCUUGGUUUUUUG [A41U G45C], the “polymerase ribozyme fitness (log ratio)” value falls from -0.214 to -2.41.

Going from GACCAAUCUGCCCUCAGAGCUCGAGAACAUCUUCGGAUGCGGAGGAGGCAGGCUACGGUGGCGCGAUAGCGCCAACGUCCUCAACCUCCAAUGCAUCCCACCACAUGAUGAUGCCUGAAGAGCCUUGGUGUUUUG [A41G U55A U130G] to GACCAAUCUGCCCUCAGAGCUCGAGAACAUCUUCGGAUGCUGAGAAGGCAGGCUUAGGUGGCGCGAUAGCGCCAACGUCCUCAACCUCCAAUGCAUCCCACCACAUGAUGAUACCUGAAGAGCCUUGGUUUUUUG [A41U G45A C56A G113A], the “polymerase ribozyme fitness (log ratio)” value falls from -0.934 to -3.04.

With GACCAAUCUGCCCUCAGAGCUCGAGAACAUCUUCGGAUGCUGAGGAGGCAGGCUUCGGUGGCGCGCUAGUGCCAACGUCCUCAACCUCCAAUGCAUUCCACCACAUGAUGAUGCCUGAAGAGCCUUGGUUUUUUG [A41U A66C C70U C97U] the “polymerase ribozyme fitness (log ratio)” value was -5.29.
